Test results from patent US5780265A, “Kunitz type plasma kallikrein inhibitors” (Genentech, Inc., priority 1995, dated 1998).
Like-named read-outs stand apart in the source and are kept apart here. Bridges are numbered along the chain shown (N, C = ends). Where no end group is shown, it is not given here.

Columns and labels:
[1] = target: T1, plasmin (Homo sapiens, UniProt P00747); test: Specificity assay, plasmin; format: biochemical; conditions: 100 nM inhibitor; for fraction of remaining proteolytic activity, plasmin: plasmin 32 nM, 0.7 mM S2251
T1 construct: Human plasmin, S-2302, S-2251, and S-2366 were purchased from Kabi Vitrum (Sweden); purchased Kabi Vitrum (Sweden)
T1 sequence (P00747 581-810 limits assumed): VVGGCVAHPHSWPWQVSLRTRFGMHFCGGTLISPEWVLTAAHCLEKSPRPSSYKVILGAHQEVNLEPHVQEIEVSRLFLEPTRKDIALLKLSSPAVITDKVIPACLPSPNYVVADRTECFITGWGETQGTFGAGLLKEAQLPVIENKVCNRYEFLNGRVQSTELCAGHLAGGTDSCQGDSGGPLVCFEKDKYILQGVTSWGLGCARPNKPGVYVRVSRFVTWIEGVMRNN
T1 sequence (P00747 97-580 limits assumed): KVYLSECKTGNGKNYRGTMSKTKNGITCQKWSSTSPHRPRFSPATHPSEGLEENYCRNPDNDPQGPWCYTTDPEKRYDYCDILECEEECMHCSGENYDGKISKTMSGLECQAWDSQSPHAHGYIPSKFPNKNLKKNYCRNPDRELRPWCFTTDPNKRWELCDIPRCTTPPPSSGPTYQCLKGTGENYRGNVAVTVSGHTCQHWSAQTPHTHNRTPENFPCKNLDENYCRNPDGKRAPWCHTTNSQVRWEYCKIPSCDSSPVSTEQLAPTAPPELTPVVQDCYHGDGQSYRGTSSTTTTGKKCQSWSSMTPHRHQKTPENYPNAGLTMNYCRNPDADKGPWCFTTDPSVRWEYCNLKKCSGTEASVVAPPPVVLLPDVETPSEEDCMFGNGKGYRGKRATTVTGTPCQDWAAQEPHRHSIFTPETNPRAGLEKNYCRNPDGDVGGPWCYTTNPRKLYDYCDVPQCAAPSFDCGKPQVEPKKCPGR
Procedure: (§3) Aliquots (30 μL) of various inhibitors diluted to 500 nM were incubated with each protease (100 μL) in the appropriate buffer. After incubation of the substrate/inhibitor mixes at room temperature for 2 h, the appropriate substrate (20 μL) was added, and the absorbance at 405 nm was monitored. […] The FXIa assay also contained 1 mg/mL BSA. The concentration of FXIa throughout refers to the concentration of active sites. For this experiment, the concentrations of thrombin, TF-FVIIa, FXa, FXIa, FXIIa, and plasmin are approximate and are determined based upon the manufacturers' specifications.
(§4) Serine proteases (1 to 20 nM) were assayed in the presence of 100 nM inhibitor. […] The degree to which FXIa was inhibited by selected inhibitors including the consensus mutants was further investigated by measuring the Ki *.

[2] = target: T2, Factor XIa (Homo sapiens, UniProt P03951); test: Specificity assay, Factor XIa; format: biochemical; conditions: 100 nM inhibitor; FXIa […], 0.7 mM S2366, 1 mg/mL BSA
T2 construct: purchased Haematologic Technologies Inc. (Essex Jct., Vt.)
T2 sequence (P03951 388-625 limits assumed): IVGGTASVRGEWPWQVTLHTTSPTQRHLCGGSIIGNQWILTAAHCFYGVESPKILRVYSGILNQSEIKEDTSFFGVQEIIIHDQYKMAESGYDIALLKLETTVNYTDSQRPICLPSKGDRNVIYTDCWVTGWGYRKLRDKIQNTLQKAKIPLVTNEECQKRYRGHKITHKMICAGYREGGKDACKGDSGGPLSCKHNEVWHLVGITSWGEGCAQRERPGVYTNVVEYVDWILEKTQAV
T2 sequence (P03951 19-387 limits assumed): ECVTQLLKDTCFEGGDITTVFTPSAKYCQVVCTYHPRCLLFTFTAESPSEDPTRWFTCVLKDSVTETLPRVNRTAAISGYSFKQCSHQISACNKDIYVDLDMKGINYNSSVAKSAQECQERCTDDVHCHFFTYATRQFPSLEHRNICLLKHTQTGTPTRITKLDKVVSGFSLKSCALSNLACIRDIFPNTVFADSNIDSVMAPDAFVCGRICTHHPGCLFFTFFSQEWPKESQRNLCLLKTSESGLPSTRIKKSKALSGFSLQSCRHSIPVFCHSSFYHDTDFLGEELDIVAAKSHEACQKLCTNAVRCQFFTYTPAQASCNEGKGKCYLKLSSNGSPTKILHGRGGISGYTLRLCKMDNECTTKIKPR
Procedure: as §3, §4

[3] = target: T3, plasma kallikrein (Homo sapiens, UniProt P03952); test: Specificity assay, plasma kallikrein; format: biochemical; conditions: 100 nM inhibitor; plasma kallikrein 3.5 nM, 0.7 mM S2302; 2 h room temperature
T3 construct: Human plasma kallikrein and Factor XIIa were purchased; purchased Enzyme Research Laboratories, Inc. (South Bend, Ind.)
T3 sequence (P03952 391-638 limits assumed): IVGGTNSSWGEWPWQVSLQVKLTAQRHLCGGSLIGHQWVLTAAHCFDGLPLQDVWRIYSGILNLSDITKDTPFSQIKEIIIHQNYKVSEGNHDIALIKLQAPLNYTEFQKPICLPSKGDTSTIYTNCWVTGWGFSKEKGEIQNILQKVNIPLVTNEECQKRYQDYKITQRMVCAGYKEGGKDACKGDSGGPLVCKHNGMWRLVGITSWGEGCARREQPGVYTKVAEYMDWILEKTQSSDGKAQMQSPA
T3 sequence (P03952 20-390 limits assumed): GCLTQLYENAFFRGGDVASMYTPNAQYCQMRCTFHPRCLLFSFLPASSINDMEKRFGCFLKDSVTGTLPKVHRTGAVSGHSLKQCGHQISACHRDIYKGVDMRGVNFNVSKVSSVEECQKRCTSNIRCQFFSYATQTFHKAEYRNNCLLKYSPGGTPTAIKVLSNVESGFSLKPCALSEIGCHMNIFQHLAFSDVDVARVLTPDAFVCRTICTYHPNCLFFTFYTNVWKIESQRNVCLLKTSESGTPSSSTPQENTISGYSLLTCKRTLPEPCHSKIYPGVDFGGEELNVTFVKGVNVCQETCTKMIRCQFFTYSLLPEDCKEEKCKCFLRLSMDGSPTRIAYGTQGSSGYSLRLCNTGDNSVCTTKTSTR
Procedure: as §3, §4

[4] = target: T4, activated protein C (Homo sapiens, UniProt P04070); test: Specificity assay, activated protein C; format: biochemical; conditions: 100 nM inhibitor; activated protein C 7.6 nM, 0.7 mM S2366
T4 construct: purchased Haematologic Technologies Inc. (Essex Jct., Vt.)
T4 sequence (P04070 212-461 limits assumed): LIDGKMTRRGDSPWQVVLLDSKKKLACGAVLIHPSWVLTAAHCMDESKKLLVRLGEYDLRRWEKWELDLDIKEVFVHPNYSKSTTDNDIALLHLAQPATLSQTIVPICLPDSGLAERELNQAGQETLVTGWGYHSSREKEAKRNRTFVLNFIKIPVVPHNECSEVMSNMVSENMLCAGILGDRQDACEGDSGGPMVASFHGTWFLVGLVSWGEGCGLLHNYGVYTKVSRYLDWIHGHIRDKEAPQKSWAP
T4 sequence (P04070 43-197 limits assumed): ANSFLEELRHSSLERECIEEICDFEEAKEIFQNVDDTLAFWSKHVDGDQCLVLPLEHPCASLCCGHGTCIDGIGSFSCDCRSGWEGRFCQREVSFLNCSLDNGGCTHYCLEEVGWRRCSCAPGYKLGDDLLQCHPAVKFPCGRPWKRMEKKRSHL
Procedure: as §3, §4

[5] = target: T5, Factor Xa (Homo sapiens, UniProt P00742); test: Specificity assay, Factor Xa; format: biochemical; conditions: 100 nM inhibitor; FXa 2.5 nM, 0.7 mM Spectrozyme fXa
T5 construct: purchased Haematologic Technologies Inc. (Essex Jct., Vt.)
T5 sequence (P00742 235-488 limits assumed): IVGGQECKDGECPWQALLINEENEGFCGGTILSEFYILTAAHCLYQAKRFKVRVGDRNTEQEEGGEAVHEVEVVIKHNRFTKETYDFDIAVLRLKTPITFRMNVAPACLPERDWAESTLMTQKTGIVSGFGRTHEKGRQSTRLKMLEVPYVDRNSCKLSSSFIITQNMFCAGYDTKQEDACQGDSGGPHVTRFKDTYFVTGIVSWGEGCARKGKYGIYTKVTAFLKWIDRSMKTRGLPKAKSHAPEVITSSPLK
T5 sequence (P00742 41-179 limits assumed): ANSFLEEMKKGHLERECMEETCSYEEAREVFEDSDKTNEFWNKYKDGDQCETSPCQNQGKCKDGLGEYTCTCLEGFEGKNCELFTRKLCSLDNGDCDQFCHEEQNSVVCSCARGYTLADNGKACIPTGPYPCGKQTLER
Procedure: (§5) Aliquots (30 μL) of various inhibitors diluted to 500 nM were incubated with each protease (100 μL) in the appropriate buffer. After incubation of the substrate/inhibitor mixes at room temperature for 2 h, the appropriate substrate (20 μL) was added, and the absorbance at 405 nm was monitored. […] For this experiment, the concentrations of thrombin, TF-FVIIa, FXa, FXIa, FXIIa, and plasmin are approximate and are determined based upon the manufacturers' specifications.
(§6) Serine proteases (1 to 20 nM) were assayed in the presence of 100 nM inhibitor.

[6] = target: T6, thrombin (Homo sapiens, UniProt P00734); test: Specificity assay, thrombin; format: biochemical; conditions: 100 nM inhibitor; thrombin 6.2 nM, 0.7 mM S2366
T6 construct: purchased Haematologic Technologies Inc. (Essex Jct., Vt.)
Procedure: as §5, §6

[7] = target: T7, Factor XIIa (Homo sapiens, UniProt P00748); test: Specificity assay, Factor XIIa; format: biochemical; conditions: 100 nM inhibitor; 0.7 mM S2302
T7 construct: purchased Enzyme Research Laboratories, Inc. (South Bend, Ind.)
T7 sequence (P00748 373-615 limits assumed): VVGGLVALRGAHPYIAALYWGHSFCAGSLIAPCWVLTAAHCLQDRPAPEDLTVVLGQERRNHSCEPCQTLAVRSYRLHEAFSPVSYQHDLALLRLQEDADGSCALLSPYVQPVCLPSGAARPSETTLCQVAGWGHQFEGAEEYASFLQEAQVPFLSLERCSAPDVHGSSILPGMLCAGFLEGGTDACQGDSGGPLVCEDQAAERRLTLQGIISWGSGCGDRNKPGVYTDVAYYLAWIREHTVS
T7 sequence (P00748 20-372 limits assumed): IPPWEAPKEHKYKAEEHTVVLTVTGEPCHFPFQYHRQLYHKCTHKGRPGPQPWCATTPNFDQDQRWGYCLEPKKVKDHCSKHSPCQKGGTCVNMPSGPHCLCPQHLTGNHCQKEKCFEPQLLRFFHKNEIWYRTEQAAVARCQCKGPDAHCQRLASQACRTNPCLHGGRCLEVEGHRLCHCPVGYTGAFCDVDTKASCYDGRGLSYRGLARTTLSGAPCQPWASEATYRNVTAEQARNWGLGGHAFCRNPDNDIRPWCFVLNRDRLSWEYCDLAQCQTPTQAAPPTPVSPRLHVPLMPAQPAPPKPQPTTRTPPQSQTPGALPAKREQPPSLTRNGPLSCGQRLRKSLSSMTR
Procedure: as §5, §6

[8] = target: T8, TF-FVIIa (tissue factor-Factor VIIa) (Homo sapiens, UniProt P08709); test: Specificity assay, TF-FVIIa; format: biochemical; conditions: 100 nM inhibitor; TF 77 nM-FVIIa 14 nM, 0.7 mM S2366
T8 construct: purchased Haematologic Technologies Inc. (FVIIa); TF made in house; host or cells: E. coli (TF 1-243)
T8 sequence (P08709 213-466 limits assumed): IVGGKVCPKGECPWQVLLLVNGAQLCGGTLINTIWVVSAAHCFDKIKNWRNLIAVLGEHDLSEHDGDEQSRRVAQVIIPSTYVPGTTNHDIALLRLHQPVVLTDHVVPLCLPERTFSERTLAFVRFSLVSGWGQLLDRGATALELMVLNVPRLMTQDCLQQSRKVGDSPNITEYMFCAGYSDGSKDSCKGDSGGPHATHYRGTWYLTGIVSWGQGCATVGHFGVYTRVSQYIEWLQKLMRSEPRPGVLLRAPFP
T8 sequence (P08709 61-212 limits assumed): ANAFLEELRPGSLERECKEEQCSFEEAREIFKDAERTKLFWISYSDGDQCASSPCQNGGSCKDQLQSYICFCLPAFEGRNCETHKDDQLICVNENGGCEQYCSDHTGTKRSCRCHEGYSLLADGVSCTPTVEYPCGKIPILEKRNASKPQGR
T8 sequence (P13726 33-275 partner limits assumed): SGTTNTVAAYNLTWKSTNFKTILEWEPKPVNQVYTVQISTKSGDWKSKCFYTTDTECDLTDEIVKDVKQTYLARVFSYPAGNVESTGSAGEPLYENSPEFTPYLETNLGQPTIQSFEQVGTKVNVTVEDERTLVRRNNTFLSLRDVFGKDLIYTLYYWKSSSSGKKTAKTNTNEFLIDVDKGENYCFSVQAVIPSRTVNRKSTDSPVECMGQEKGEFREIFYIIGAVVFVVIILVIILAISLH
Procedure: as §3, §4

[9] = target: T3, plasma kallikrein; test: Apparent equilibrium dissociation constant (Ki*) with plasma kallikrein; format: biochemical
Procedure: Reactions (200 μL) were carried out in microtiter plates and the rate substrate (0.7 mM S2302) was monitored at 405 nm following a 1.5 h incubation. Plots of the fractional rate versus inhibitor concentration were fit by nonlinear regression analysis to Equation 1 to determine apparent equilibrium dissociation constants (Ki *):

[10] = target: T2, Factor XIa; test: Apparent equilibrium dissociation constant (Ki*) with FXIa; format: biochemical; conditions: at least 3 independent measurements
Procedure: as §4

[11] = tested on: intrinsic coagulation pathway; test: Activated partial thromboplastin time (APTT) clotting assay in normal human plasma; format: biochemical; conditions: 1 μM inhibitor
Procedure: (§1) FIG. 5A and FIG. 5B. […] The uninhibited clotting times were 33.6 sec and 14 sec for the APTT and PT, respectively
(§2) Clotting times for normal human plasma were performed using an MLA Electra 800 Coagulometer (Medical Laboratory Automation, Inc. Pleasantville, N.Y.) and Dade reagents (Baxter Health Care Corp., Miami Fla.). The clotting time was determined by optical assessment.
For the activated partial thromboplastin time (APTT) assays, the activation time was set at 120 sec and acquisition time at 300 to 600 sec depending on the expected outcome of the assay. Citrated normal human plasma and inhibitor were incubated together. The sample (plasma and inhibitor) and activator (Actin FS) were automatically pipetted and incubated is together for 2 min at 37° C., then CaCl2 was added and clotting time determined by means of optical assessment. The total incubation time of inhibitor with plasma was ca. 3 min before addition of activator, and 5 min before addition of CaCl2.

[12] = tested on: extrinsic coagulation pathway; test: Prothrombin time (PT) clotting assay, tissue factor initiated; format: biochemical; conditions: normal human plasma, TF initiated
Procedure: as §1, §2

[13] = target: plasma kallikrein; conditions: Seymour et al. 1994; read-out: Ki for plasma kallikrein (literature); cited from earlier work
[14] = 25° C., pH 7.5, 0.7 mM S2302, 1.5 h incubation, at least 3 independent measurements, read-out: Plasma Kallikrein Ki*

Compound | fraction of remaining proteolytic activity, plasmin [1] | fraction of remaining proteolytic activity, Factor XIa [2] | fraction of remaining proteolytic activity, plasma kallikrein [3] | fraction of remaining proteolytic activity, activated protein C [4] | fraction of remaining proteolytic activity, Factor Xa [5] | fraction of remaining proteolytic activity, thrombin [6] | fraction of remaining proteolytic activity, Factor XIIa [7] | fraction of remaining proteolytic activity, TF · Factor VIIa [8] | Ki [9, 14] | Ki [10] | also measured
KALI-46: APPI Kunitz domain mutant, R1 EGRCRASILR2 FR3 (SEQ ID NO: 33) (VREVCSEQAEEGRCRASILRWYFDVTEGKCAPFFYGGCGGNRNNFDTEEYCAAVCGSA) | 0.64 | 0.00 | 0.00 | 0.83 | 1.02 | 0.99 | 0.97 | 0.86 |  |  | 
KALI-30: APPI Kunitz domain mutant, R1 EGHCRAAILR2 FR3 (SEQ ID NO: 5) (VREVCSEQAEEGHCRAAILRWYFDVTEGKCAPFFYGGCGGNRNNFDTEEYCAAVCGSA) | 0.53 | 0.00 | 0.00 | 0.81 | 0.68 | 1.00 | 0.92 | 1.02 |  |  | 
KALI-48: APPI Kunitz domain mutant, R1 TGHCRAAIPR2 FR3 (SEQ ID NO: 2) (VREVCSEQAETGHCRAAIPRWYFDVTEGKCAPFFYGGCGGNRNNFDTEEYCAAVCGSA) | 0.23 | 0.01 | 0.00 | 0.92 | 0.55 | 0.99 | 0.99 | 0.95 |  |  | inhibition of plasmin [1]: > 60%
VREVCSEQAEEGHCRAAHPRWYFDVTEGKCAPFFYGGCGGNRNNFDTEEYCAAVCGSA (disulfide 5-55, 14-38, 30-51) [KALI-E] |  |  |  |  |  |  |  |  | 0.103 ± 0.054 nM | 4.5 ± 4 nM | 
VREVCSEQAEPGHCRAAHPRWYFDVTEGKCAPFYYGGCGGNRNNFDTEEYCAAVCGSA (disulfide 5-55, 14-38, 30-51) [KALI-PY] |  |  |  |  |  |  |  |  | 0.136 ± 0.081 nM | 11.7 ± 11.9 nM | 
KALI-13: APPI Kunitz domain mutant, R1 SGHCRAAIPR2 FR3 (SEQ ID NO: 1) (VREVCSEQAESGHCRAAIPRWYFDVTEGKCAPFFYGGCGGNRNNFDTEEYCAAVCGSA) | 0.65 | 0.01 | 0.00 | 0.90 | 0.97 | 0.96 | 1.00 | 0.96 |  |  | 
VREVCSEQAEPGHCRAAHPRWYFDVTEGKCAPFVYGGCGGNRNNFDTEEYCAAVCGSA (disulfide 5-55, 14-38, 30-51) [KALI-PV] |  |  |  |  |  |  |  |  | 0.166 ± 0.07 nM | 4.1 ± 5.2 nM | 
CC(C)[C@H](N)C(=O)N[C@@H](CCCNC(=N)N)C(=O)N[C@@H](CCC(=O)O)C(=O)N[C@H](C(=O)N[C@H]1CSSC[C@@H](C(=O)NCC(=O)N[C@@H](CO)C(=O)N[C@@H](C)C(=O)O)NC(=O)[C@H](C(C)C)NC(=O)[C@H](C)NC(=O)[C@H](C)NC(=O)[C@@H]2CSSC[C@@H]3NC(=O)[C@H](CCCCN)NC(=O)CNC(=O)[C@H](CCC(=O)O)NC(=O)[C@H]([C@@H](C)O)NC(=O)[C@H](C(C)C)NC(=O)[C@H](CC(=O)O)NC(=O)[C@H](Cc4ccccc4)NC(=O)[C@H](Cc4ccc(O)cc4)NC(=O)[C@H](Cc4c[nH]c5ccccc45)NC(=O)[C@H](CCCNC(=N)N)NC(=O)[C@@H]4CCCN4C(=O)[C@H](Cc4c[nH]cn4)NC(=O)[C@H](C)NC(=O)[C@H](C)NC(=O)[C@H](CCCNC(=N)N)NC(=O)[C@H](CSSC[C@H](NC(=O)CNC(=O)CNC(=O)[C@H](Cc4ccc(O)cc4)NC(=O)[C@H](C(C)C)NC(=O)[C@H](Cc4ccccc4)NC(=O)[C@@H]4CCCN4C(=O)[C@H](C)NC3=O)C(=O)NCC(=O)NCC(=O)N[C@@H](CC(N)=O)C(=O)N[C@@H](CCCNC(=N)N)C(=O)N[C@@H](CC(N)=O)C(=O)N[C@@H](CC(N)=O)C(=O)N[C@@H](Cc3ccccc3)C(=O)N[C@@H](CC(=O)O)C(=O)N[C@@H]([C@@H](C)O)C(=O)N[C@@H](CCC(=O)O)C(=O)N[C@@H](CCC(=O)O)C(=O)N[C@@H](Cc3ccc(O)cc3)C(=O)N2)NC(=O)[C@H](Cc2c[nH]cn2)NC(=O)CNC(=O)[C@H](CCC(=O)O)NC(=O)[C@H](CCC(=O)O)NC(=O)[C@H](C)NC(=O)[C@H](CCC(N)=O)NC(=O)[C@H](CCC(=O)O)NC(=O)[C@H](CO)NC1=O)C(C)C [KALI-EV] |  |  |  |  |  |  |  |  | 0.117 ± 0.059 nM |  | 
VREVCSEQAEEGHCRAAHPRWYFDVTEGKCAPFYYGGCGGNRNNFDTEEYCAAVCGSA (disulfide 5-55, 14-38, 30-51) [KALI-EY] |  |  |  |  |  |  |  |  | 0.98 ± 0.075 nM | 7.3 ± 5.5 nM | 
VREVCSEQAEDGHCRAAHPRWYFDVTEGKCAPFYYGGCGGNRNNFDTEEYCAAVCGSA (disulfide 5-55, 14-38, 30-51) [KALI-DY] |  |  |  |  |  |  |  |  |  | 8.2 ± 3.5 nM | Ki ([9]; read-out: Ki* for plasma kallikrein): 0.015 ± 0.014 nM
APPI: 58 amino acid Kunitz domain from human Alzheimer's disease amyloid β-protein precursor, residues 287-344; here Met52 replaced with Ala [reference compound] |  | 0.03 | 0.81 |  |  |  |  | 0.60 |  | 2.7 ± 1.4 nM | fold prolongation of clotting time, APTT [11]: 2.8 fold; prolongation of clotting time in PT assay (in words) [12]: neither KALI-DY, BPTI, nor APPI appreciably prolonged
VREVCSEQAEDGHCRAAHPRWYFDVTEGKCAPFVYGGCGGNRNNFDTEEYCAAVCGSA (disulfide 5-55, 14-38, 30-51) [KALI-DV] |  |  |  |  |  |  |  |  | 0.043 ± 0.034 nM | 1.3 ± 1.4 nM | 
ecotin: a 142 residue protein from E. coli |  |  |  |  |  |  |  |  |  |  | Ki [13]: ~0.16 nM
VREVCSEQAEPGHCRAAHPRWYFDVTEGKCAPFFYGGCGGNRNNFDTEEYCAAVCGSA (disulfide 5-55, 14-38, 30-51) [KALI-P] |  |  |  |  |  |  |  |  | 0.2 ± 0.099 nM | 13.8 ± 17.4 nM | 
KALI-8: APPI Kunitz domain mutant, R1 LGHCRAAIPR2 FR3 (SEQ ID NO: 3) (VREVCSEQAELGHCRAAIPRWYFDVTEGKCAPFFYGGCGGNRNNFDTEEYCAAVCGSA) | 0.83 | 0.00 | 0.00 | 0.89 | 1.13 | 0.99 | 1.00 | 0.94 |  |  | 
VREVCSEQAEDGHCRAAHPRWYFDVTEGKCAPFFYGGCGGNRNNFDTEEYCAAVCGSA (disulfide 5-55, 14-38, 30-51) [KALI-D] |  |  |  |  |  |  |  |  | 0.025 ± 0.022 nM | 5.7 ± 7 nM | 
